Measured values published in the supplement of paper PMC10567573.

B1: TMEM175 (parent)
chain: QTSAFARQPRDELERVRVSCTIIF
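Also: lentivirally expressed fusions sorted by FACS into six bins by GFP to DsRed ratio, PSI derived from sequencing read proportions per bin multiplied by bin number.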

Variants of: B1
Assay: protein stability index of a GFP-peptide fusion (GPS, HEK-293T) (PSI 1-6); higher = more stable
Settings: c terminus: a fixed tail appended
In the case of NTSAFARQPRDELERVRVSCTIIF, the protein stability index is reported as 3.4. Variant MTSAFARQPRDELERVRVSCTIIF has a protein stability index of 1.64. With QTSAFARQPHDELERVRVSCTIIF the protein stability index was 2.4. QTSAFARQPYDELERVRVSCTIIF showed a protein stability index of 2.65. Work on QTSAFARQPNDELERVRVSCTIIF yielded a protein stability index of 2.57. QTSAFARQPWDELERVRVSCTIIF showed a protein stability index of 3.68. QTSAFARQPSDELERVRVSCTIIF gave a protein stability index of 2.4. Variant QTSAFARQPKDELERVRVSCTIIF has a protein stability index of 3.68. For QTSAFARQPCDELERVRVSCTIIF, the protein stability index was 2.79. In the case of QTSAFARQPPDELERVRVSCTIIF, the protein stability index is reported as 2.87. QTSAFARQPADELERVRVSCTIIF gave a protein stability index of 2.28. Work on QTSAFARQPTDELERVRVSCTIIF yielded a protein stability index of 2.48. Work on QTSAFARQPIDELERVRVSCTIIF yielded a protein stability index of 2.06. For QTSAFARQPDDELERVRVSCTIIF, the protein stability index was 2.48. QTSAFARQPVDELERVRVSCTIIF gave a protein stability index of 2.03. Work on QTSAFARQPMDELERVRVSCTIIF yielded a protein stability index of 2.35. Work on QTSAFARQPQDELERVRVSCTIIF yielded a protein stability index of 3.27. QTSAFARQPEDELERVRVSCTIIF showed a protein stability index of 2.31. Work on QTSAFARQLRDELERVRVSCTIIF yielded a protein stability index of 2.43. QTSAFARQIRDELERVRVSCTIIF gave a protein stability index of 2.44. Variant QTSAFARQDRDELERVRVSCTIIF has a protein stability index of 2.03. Work on QTSAFARQQRDELERVRVSCTIIF yielded a protein stability index of 1.71. For QTSAFARQFRDELERVRVSCTIIF, the protein stability index was 2.38. In the case of QTSAFARQWRDELERVRVSCTIIF, the protein stability index is reported as 2.31. In the case of QTSAFARQKRDELERVRVSCTIIF, the protein stability index is reported as 1.03. QTSAFARQVRDELERVRVSCTIIF gave a protein stability index of 3.32. Variant QTSAFARQSRDELERVRVSCTIIF has a protein stability index of 1.15. Work on QTSAFARQNRDELERVRVSCTIIF yielded a protein stability index of 2.67. In the case of QTSAFARQHRDELERVRVSCTIIF, the protein stability index is reported as 2.88. In the case of QTSAFARQYRDELERVRVSCTIIF, the protein stability index is reported as 2.83. QTSAFARQERDELERVRVSCTIIF showed a protein stability index of 3.41. QTSAFARQTRDELERVRVSCTIIF showed a protein stability index of 2.67. Variant QTSAFARQGRDELERVRVSCTIIF has a protein stability index of 2.81. For QTSAFARQRRDELERVRVSCTIIF, the protein stability index was 1.91. QTSAFARQPRDCLERVRVSCTIIF gave a protein stability index of 2.24. Work on QTSAFARQPRDDLERVRVSCTIIF yielded a protein stability index of 2.16. In the case of QTSAFARQPRDFLERVRVSCTIIF, the protein stability index is reported as 1.76. Variant QTSAFARQPRDALERVRVSCTIIF has a protein stability index of 3.94. For QTSVFARQPRDELERVRVSCTIIF, the protein stability index was 1.7. QTSYFARQPRDELERVRVSCTIIF showed a protein stability index of 1.46. With QTSHFARQPRDELERVRVSCTIIF the protein stability index was 1.46. For QTSKFARQPRDELERVRVSCTIIF, the protein stability index was 1.26. In the case of QTSFFARQPRDELERVRVSCTIIF, the protein stability index is reported as 1.88. For QTSIFARQPRDELERVRVSCTIIF, the protein stability index was 1.96. In the case of QTSNFARQPRDELERVRVSCTIIF, the protein stability index is reported as 1.5. Variant QTSLFARQPRDELERVRVSCTIIF has a protein stability index of 3.63. QTSMFARQPRDELERVRVSCTIIF showed a protein stability index of 3.56. With QTSGFARQPRDELERVRVSCTIIF the protein stability index was 2.95. For QTSTFARQPRDELERVRVSCTIIF, the protein stability index was 2.06. For QTSDFARQPRDELERVRVSCTIIF, the protein stability index was 3.36. For QTSRFARQPRDELERVRVSCTIIF, the protein stability index was 2.89. QTSEFARQPRDELERVRVSCTIIF showed a protein stability index of 2.9. With QTSPFARQPRDELERVRVSCTIIF the protein stability index was 3.2. For QTSSFARQPRDELERVRVSCTIIF, the protein stability index was 3.97. QTSAFCRQPRDELERVRVSCTIIF gave a protein stability index of 3.04. Work on QTSAFHRQPRDELERVRVSCTIIF yielded a protein stability index of 2.09. With QTSAFLRQPRDELERVRVSCTIIF the protein stability index was 1.6. QTSAFERQPRDELERVRVSCTIIF gave a protein stability index of 3.06. With QTSAFWRQPRDELERVRVSCTIIF the protein stability index was 2.34. In the case of QTSAFVRQPRDELERVRVSCTIIF, the protein stability index is reported as 2.9. QTSAFFRQPRDELERVRVSCTIIF gave a protein stability index of 1.36. QTSAFYRQPRDELERVRVSCTIIF showed a protein stability index of 2.68. Work on QTSAFMRQPRDELERVRVSCTIIF yielded a protein stability index of 1.74. Work on QTSAFRRQPRDELERVRVSCTIIF yielded a protein stability index of 1.84. With QTSAFDRQPRDELERVRVSCTIIF the protein stability index was 2.35. Variant QTSAFKRQPRDELERVRVSCTIIF has a protein stability index of 2.11. Work on QTSAFNRQPRDELERVRVSCTIIF yielded a protein stability index of 2.57. QTSAFTRQPRDELERVRVSCTIIF showed a protein stability index of 1.44. QTSAFATQPRDELERVRVSCTIIF showed a protein stability index of 2.68. With QTSAFADQPRDELERVRVSCTIIF the protein stability index was 2.01. QTSAFAKQPRDELERVRVSCTIIF showed a protein stability index of 2.08. For QTSAFAAQPRDELERVRVSCTIIF, the protein stability index was 2.46. QTSAFAVQPRDELERVRVSCTIIF showed a protein stability index of 1.33. QTSAFAQQPRDELERVRVSCTIIF gave a protein stability index of 1.6. With QTSAFAMQPRDELERVRVSCTIIF the protein stability index was 2.66. For QTSAFACQPRDELERVRVSCTIIF, the protein stability index was 3.01. QTSAFALQPRDELERVRVSCTIIF gave a protein stability index of 2.48. QTSAFAYQPRDELERVRVSCTIIF showed a protein stability index of 1.58. In the case of QTSAFAFQPRDELERVRVSCTIIF, the protein stability index is reported as 2.53. For QTSAFAEQPRDELERVRVSCTIIF, the protein stability index was 1.91. QTSAFAIQPRDELERVRVSCTIIF gave a protein stability index of 2.42. Variant QTSAFARQPRTELERVRVSCTIIF has a protein stability index of 4.12. For QTSAFARQPREELERVRVSCTIIF, the protein stability index was 2.73. Work on QTSAFARQPRCELERVRVSCTIIF yielded a protein stability index of 2.58. With QTSAFARQPRQELERVRVSCTIIF the protein stability index was 2.47. In the case of QTSAFARQPRKELERVRVSCTIIF, the protein stability index is reported as 3.33. QTSAFARQPRLELERVRVSCTIIF gave a protein stability index of 3.31. Work on QTSAFARQPRVELERVRVSCTIIF yielded a protein stability index of 2.38. Work on QTSAFARQPRPELERVRVSCTIIF yielded a protein stability index of 2.6. In the case of QTSAFARQPRSELERVRVSCTIIF, the protein stability index is reported as 2.81. QTSAFARQPRNELERVRVSCTIIF gave a protein stability index of 3.52. QTSAFARQPRGELERVRVSCTIIF showed a protein stability index of 3.67. Variant QTSAFARQPRYELERVRVSCTIIF has a protein stability index of 3.09. QTSAFARQPRAELERVRVSCTIIF showed a protein stability index of 3.09.
